T1: MMP-26 (human)
T1 sequence: ASDF

B1: A1-orig (antibody, human IgG4, V domains shown)
VH: EVQLLESGGGLVQPGGSLRLSCAASGFTFSYYRMSWVRQAPGKGLEWVSSIGPSGGDTLYADSVKGRFTISRDNSKNTLYLQMNSLRAEDTAVYYCARSFSSGPYYFDYWGQGTLVTVSS
VL: QSVLTQPPSASGTPGQRVIISCSGSSSNIGSHYVHWYQQVPGTAPKLLIYRNGQRPSGVPDRFSGFKSGTSASLAISGLRSEDEANYYCATWDDSVLFGGGTTLTVLG
B2: A11 (antibody, human IgG4, V domains shown)
VH: EVQLLESGGGLVQPGGSLRLSCAASGFTFSWYTMMWVRQAPGKGLEWVSRISPSGGHTLYADSVKGRFTISRDNSZNTLYLQMNSLRAEDTAVYYCARDTWDDYYDSSGYYNDFDYWGQGTLVTVSS
VL: QSALTQPPSVSLAPGQTARITCGGNNIGTKSVHWYQQKPGQAPVLVVYDDSDRPSGIPERFSGSNSGNTATLTISRVEAGDEADYYCQVWDSGSDHQVFGGGTKLTVLG
B3: H6-orig (antibody, human IgG4, V domains shown)
VH: EVQLLESGGGLVQPGGSLRLSCAASGFTFSQYWMNWVRQAPGKGLEWVSGIGPSGGITYYADSVKGRFTISRDNSKNTLYLQMNSLRAEDTAVYYCARGEEDGYNSDYWGQGTLVTVSS
VL: QSELTQPPSASGSPGQSVTISCTGTSSDVGAYNYVSWYQQHPGKAPKLIIYEVNKRPSGVPDRFSASKSGNTASLTVSGLQAEDEADYYCNSYAGSNSLIFGGGTKLTVLG
B4: B04 (antibody, human IgG4, V domains shown)
VH: EVQLLESGGGLVQPGGSLRLSCAASGFTFSFYWMMWVRQAPGKGLEWVSGISSSGGFTKYADSVKGRFTISRDNSKNTLYLQMNSLRAEDTAVYYCARETSRRAFDIWGQGTMVTVSS
VL: DIQMTQSPSSVSASVGDRVTITCRASQGISKSLAWYQQKPGKAPKLLVYGAFSLESGVPSRFSGTGAGTDFILTISRLQPEDFATYYCQQANSFPLTFGGGTKVEIKR
B5: B10 (antibody, human IgG4, V domains shown)
VH: EVQLLESGGGLVQPGGSLRLSCAASGFTFSSYAMMWVRQAPGKGLEWVSWIVPSGGTTFYADSVKGRFTISRDNSKNTLYLQMNSLRAEDTAVYYCARGLYRWGQGTLVTVSSASTKGPSVFP
VL: DIQMTQSPSSLSASVGDRVTIACRTSQNVNRYLNWYQHKLGQAPKLLIYGATILQSGVPSRFRGSGSGTDFILTITNLQPEDFAVYYCQQTYSPPLTFGQGTKAEFKGTVAAPSV
B6: C04 (antibody, human IgG4, V domains shown)
VH: EVQLLESGGGLVQPGGSLRLSCAASGFTFSMYFMVWVRQAPGKGLEWVSWIGSSGGETPYADSVKGRFTISRDNSKNTLYLQMNSLRAEDTAVYYCARGYSSGWYVMGDYWGQGTLVTVSS
VL: QSALTQPPSASGTPGQRVTISCSGTSSNIGSHYVFWYQQLPGTAPKLLIHRNDERPSGVPDRFSGSKSGTSASLAISGLQSEDEADYYCATWDDNLNGPVFGGGTKLT
B7: D6-orig (antibody, human IgG4, V domains shown)
VH: EVQLLESGGGLVQPGGSLRLSCAASGFTFSMYSMRWVRQAPGKGLEWVSSIYPSGGSTEYADSVKGRFTISRDNSKNTLYLQMNSLRAEDTAVYYCAREGGENDYWGQGTLVTVSS
VL: DIQMTQSPLSLSASVGDRVAITCRASQSIDTYLNWYQQKPGKAPKLLIYAASKLEDGVPSRFSGSGTGTDFTLTIRSLQPEDFASYFCQQSYSSPGITFGPGTKVEIKR
B8: A01 (antibody, human IgG4, V domains shown)
VH: EVQLLESGGGLVQPGGSLRLSCAASGFTFSAYNMFWVRQAPGKGLEWVSGIGSSGGIAPYADSVKGRFTISRDNSKNTLYLQMNSLRAEDTAVYYCARAAYEVENWFDPWGQGTLVTVSS
VL: DIQMTQSPGTLSLSPGERATLSCRASQIVRSTYLAWYQQKPGQAPRLLIYGTSSRATGVPDRFSGSGSGTDFTLTISGLEPEDFALYYCQRYGDSPPITFGQGTRLEITR
B9: C01 (antibody, human IgG4, V domains shown)
VH: EVQLLESGGGLVQPGGSLRLSCAASGFTFSNYGMSWVRQAPGKGLEWVSVIGPSGGITMYADSVKGRFTISRDNSKNTLYLQMNSLRAEDTAVYYCATGSSSGWYPNFDYWGQGTLVTVSS
VL: DIQMTQSPSTLSASVGDRVTITCRASQSIGNWLAWYQQKPGEAPHLLIYQASSLEGGVPSRFSGSGSGTKFTLNISSLQPDDFATYYCQQYNSYSYTFGQGTKLDIKR
B10: A04 (antibody, human IgG4, V domains shown)
VH: EVQLLESGGGLVQPGGSLRLSCAASGFTFSEYNMAWVRQAPGKGLEWVSRIGSSGGKTKYADSVKGRFTISRDNSKNTLYLQMNSLRAEDTAVYYCARDEAPDYGDDAEAFDIWGQGTMVTVSS
VL: QSALTQPPSASGTPGQRVTISCSGGYSNMGSNYAHWYQQVPGTAPKLLIYNNNQRPSGVPDRFSGSKSGTSASLAISGLRSEDEADYYCAAWDENLSGPVFGTGTKVTVLG
B11: B06 (antibody, human IgG4, V domains shown)
VH: EVQLLESGGGLVQPGGSLRLSCAASGFTFSQYFMKWVRQAPGKGLEWVSSISPSGGLTQYADSVKGRFTISRDNSKNTLYLQMNSLRAEDTAVYYCARGGIEAPGSPSDYWGQGTLVTVSS
VL: DIQMTQSPSFLSASVGDRVTITCRASQGISSYLAWYQQKPGKAPKLLIYAASTLQSGVPSRFSGSGSGTDFTLTISSLEPEDFATYYCQESYSTPFFTFGPGTKVDIRR

biological target: T1, MMP-26 (human); test: cell-based or functional assay

Binder | % Inhibition of JEG-3 cell invasion, 1 µg/ml (further test) | % Inhibition of JEG-3 cell invasion, 5 µg/ml (first test) | % Inhibition of JEG-3 cell invasion, 5 µg/ml (further test) | % Inhibition of JEG-3 cell invasion, 25 µg/ml (first test) | % Inhibition of JEG-3 cell invasion, 25 µg/ml (further test) | % Inhibition of JEG-3 cell invasion, 50 µg/ml (further test)
B1 | 53% | 40% | 58% | 66% | 64% | 74%
B2 | 51% | 28% | 54% | 56% | 59% | 73%
B3 | 49% | 24% | 52% | 50% | 57% | 39%
B4 |  | 36% |  | 14% |  | 
B5 | 6% | 48% | 5% | 26% | 11% | 22%
B6 | 1% | 35% | 11% | 36% | 18% | 32%
B7 | 42% | 41% | 55% | 52% | 70% | 35%
B8 | 30% | 19% | 47% | 51% | 54% | 70%
B9 | -2% | 43% | 16% | 34% | 21% | 42%
B10 |  | 6% |  | 27% |  | 
B11 |  | 34% |  | 30% |  | 

From patent US7514534
